Assay results: patent publication US20230287046A1, “MOLECULES TARGETING PROTEINS” (AELIN THERAPEUTICS, priority 2020, published 2023)
Where a chain is given by its changes, count along the chain named. Where no end group is shown, it is not given here.

How the values were obtained:
ITK R29C = molecular target: T1, ITK R29C (Homo sapiens, UniProt Q08881, R29C); experiment: ITK in vitro translation assay with streptavidin pull-down, R29C; conditions: 10 μM biotinylated pept-in, fraction binding normalized over vehicle
T1 construct: made in house; host or cells: cell-free: PURExpress In Vitro Protein Synthesis Kit (New England Biolabs)
T1 sequence (Q08881 1-620 R29C): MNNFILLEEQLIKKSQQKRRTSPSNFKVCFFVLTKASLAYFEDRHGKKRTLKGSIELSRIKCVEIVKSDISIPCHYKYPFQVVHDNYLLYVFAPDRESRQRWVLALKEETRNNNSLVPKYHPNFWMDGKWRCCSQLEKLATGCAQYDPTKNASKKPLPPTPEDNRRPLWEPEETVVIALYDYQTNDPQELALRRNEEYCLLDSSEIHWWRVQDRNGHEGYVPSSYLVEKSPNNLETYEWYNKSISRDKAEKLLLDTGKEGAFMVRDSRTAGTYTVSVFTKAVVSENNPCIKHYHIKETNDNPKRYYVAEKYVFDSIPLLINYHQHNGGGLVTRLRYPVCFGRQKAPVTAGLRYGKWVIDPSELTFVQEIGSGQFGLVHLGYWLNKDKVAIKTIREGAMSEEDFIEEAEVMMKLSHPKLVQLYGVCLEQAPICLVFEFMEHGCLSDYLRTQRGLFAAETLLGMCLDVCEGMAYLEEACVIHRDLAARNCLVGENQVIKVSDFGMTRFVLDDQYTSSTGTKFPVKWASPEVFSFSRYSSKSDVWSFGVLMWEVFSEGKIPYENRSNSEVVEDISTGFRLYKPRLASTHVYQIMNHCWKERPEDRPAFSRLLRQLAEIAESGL
Experimental: (§1) An in vitro translation approach was used to assess ITK mutant selective binding over wild-type for the 22-006-N001 and 22-018-N001 pept-ins. In particular, in vitro translation assays were performed using the PURExpress® In Vitro Protein Synthesis Kit (New England Biolabs) according to the manufacturer's instructions. Briefly, linear DNA fragments containing T7 promotor and terminator sequences flanking the […] (SEQ ID NO: 68)-tagged ITK coding sequence were generated using PCR and purified using the MinElute PCR Purification Kit (Qiagen). 250 ng of linear DNA was subsequently used for the in vitro translation reaction, which was performed for 2 hrs at 37° C. with shaking (1000 rpm). Indicated biotinylated pept-ins were mixed in the translation reactions from a 5 mM stock solution in 6M Urea to a final concentration of 10 μM. Upon completion of the translation reaction, biotinylated pept-ins were captured from the reaction mix using Streptavidin coated beads (Pierce) during 90 min at room temperature. Beads were next washed with TBS containing 0.1% Tween 20 and bound proteins were finally boiled off in 1×SDS loading dye (Bio-Rad) in TBS buffer. Proteins were resolved using Any kD 15-well Mini-PROTEAN gels (Bio-Rad) during SDS-PAGE and probed for ITK using a rabbit anti-[…] (SEQ ID NO: 68) tag antibody (Cell Signaling 14793) after Western blotting.

ITK R29L = molecular target: T2, ITK R29L (Homo sapiens, UniProt Q08881, R29L); experiment: ITK in vitro translation assay with streptavidin pull-down, R29L; conditions: 10 μM biotinylated pept-in, fraction binding normalized over vehicle
T2 construct: made in house; host or cells: cell-free: PURExpress In Vitro Protein Synthesis Kit (New England Biolabs)
T2 sequence (Q08881 1-620 R29L): T1 sequence (Q08881 1-620 R29C) with C29L
Experimental: as §1

[1] = tested on: NCI-H441 spheroid cultures; experiment: Single-dose viability screen on NCI-H441 suspension spheroid cultures (3D, CellTiter Glo 3D); type: cell-based, human; conditions: NCI-H441 spheroids, single dose 25 μM, 5 days
Experimental: For the single-dose viability screen on spheroid cultures, 1000 cells were seeded per well in black Ultra-Low Attachment (ULA) round-bottom 96-well plates (Corning) in 75 μL full growth medium. The day after seeding, spheroids were treated by addition of 50 μl of full growth medium containing the indicated test compounds so that the final concentration after adding was 25 μM. Technical duplicates were included for all experimental pept-in conditions 5 days after treatment viability was assessed using the CellTiter Glo 3D reagent (Promega) according to the manufacturer's instructions, with the following adaptation: 80 μL of reagent was added per well. Readout was performed on a Clariostar plate reader (BMG). […]
As previous reports have shown that adherent growth of KRAS mutant cells lines might attenuate their sensitivity to KRAS inhibition or knockdown (Fujita-Sato et al. Cancer Res. 2015, vol. 75, 2851-62; Patricelli et al. Cancer Discov. 2016, vol. 6, 316-29; Vartanian et al. J Biol Chem. 2013, vol. 288, 2403-13), we complemented the screen on adherently growing NCI-H441 cells with a screen on suspension spheroid cultures of the same cell line. […] Viability of the spheroid cultures was determined after 5 days of exposure using the CellTiter Glo 3D reagent from Promega. […]

[2] = molecular target: T3, mCherry-tagged KRAS G12V in HeLa cells (Homo sapiens, UniProt P01116, G12V); experiment: Cellular fluorescent imaging in HeLa cells overexpressing mCherry-tagged KRAS G12V; type: cell-based; conditions: 75 min after treatment
T3 construct: expressed in transfected cells; host or cells: HeLa cells transduced with lentiviral particles
Experimental: Fluorescent cellular imaging was performed using HeLa cells that were transduced with lentiviral particles carrying a construct expressing KRAS G12V labeled N-terminally with mCherry. Cells were seeded in a black Gclear® Cellstar® F-bottom 96-well plates (Greiner) in 100 μL full growth medium. […] Next, cells were fixed, washed and counterstained with the nuclear dye NucBlue™ (containing Hoechst 33342). Images were captured on a Leica confocal microscope.
To complement the co-immunoprecipitation approach, we also used a cellular imaging approach to show target engagement. To this end, we generated a HeLa cell line overexpressing mCherry-tagged KRAS G12V and FITC-labelled versions of the RAS-targeting pept-ins.

KRAS G12D mutant = molecular target: T4, KRAS G12D mutant (Homo sapiens, UniProt P01116, G12D); experiment: In vitro translation assay with streptavidin pull-down, KRAS G12D; type: binding; conditions: 10 μM biotinylated pept-in, Western blot
T4 construct: made in house; host or cells: cell-free: PURExpress In Vitro Protein Synthesis Kit (New England Biolabs)
Experimental: (§2) In vitro translation assays were performed using the PURExpress® In Vitro Protein Synthesis Kit (New England Biolabs) according to the manufacturer's instructions. Briefly, linear DNA fragments containing T7 promotor and terminator sequences flanking the KRAS coding sequence were generated using PCR and purified using the MinElute PCR Purification Kit (Qiagen). 250 ng of linear DNA was subsequently used for the in vitro translation reaction, which was performed for 2 hours at 37° C. with shaking (1000 rpm). Indicated biotinylated pept-ins were mixed in the translation reactions from a 5 mM stock solution in 6M Urea to a final concentration of 10 μM. Upon completion of the translation reaction, biotinylated pept-ins were captured from the reaction mix using Streptavidin coated beads (Pierce) during 90 min at room temperature. Beads were next washed with TBS containing 0.1% Tween 20 and bound proteins were finally boiled off in 1×SDS loading dye (Bio-Rad) in TBS buffer. Proteins were resolved using Any kD 15-well Mini-PROTEAN gels (Bio-Rad) during SDS-PAGE and probed for KRAS after Western blotting using a mouse monoclonal KRAS-specific antibody (SC-30, Santa Cruz Biotechnology), which was detected with an HRP-coupled anti-mouse secondary antibody using chemiluminescence on a Bio-Rad Chemidoc MP imaging instrument. […]

KRAS G13D mutant = molecular target: T5, KRAS G13D mutant (Homo sapiens, UniProt P01116, G13D); experiment: In vitro translation assay with streptavidin pull-down, KRAS G13D; type: binding; conditions: 10 μM biotinylated pept-in, Western blot
T5 construct: made in house; host or cells: cell-free: PURExpress In Vitro Protein Synthesis Kit (New England Biolabs)
Experimental: as §2

G12V mutant KRAS = molecular target: T6, G12V mutant KRAS (Homo sapiens, UniProt P01116, G12V); experiment: In vitro translation assay with streptavidin pull-down, KRAS G12V; type: binding; conditions: 10 μM biotinylated pept-in, Western blot
T6 construct: made in house; host or cells: cell-free: PURExpress In Vitro Protein Synthesis Kit (New England Biolabs)
Experimental: In vitro translation assays were performed using the PURExpress® In Vitro Protein Synthesis Kit (New England Biolabs) according to the manufacturer's instructions. Briefly, linear DNA fragments containing T7 promotor and terminator sequences flanking the KRAS coding sequence were generated using PCR and purified using the MinElute PCR Purification Kit (Qiagen). 250 ng of linear DNA was subsequently used for the in vitro translation reaction, which was performed for 2 hours at 37° C. with shaking (1000 rpm). Indicated biotinylated pept-ins were mixed in the translation reactions from a 5 mM stock solution in 6M Urea to a final concentration of 10 μM. Upon completion of the translation reaction, biotinylated pept-ins were captured from the reaction mix using Streptavidin coated beads (Pierce) during 90 min at room temperature. Beads were next washed with TBS containing 0.1% Tween 20 and bound proteins were finally boiled off in 1×SDS loading dye (Bio-Rad) in TBS buffer. Proteins were resolved using Any kD 15-well Mini-PROTEAN gels (Bio-Rad) during SDS-PAGE and probed for KRAS after Western blotting using a mouse monoclonal KRAS-specific antibody (SC-30, Santa Cruz Biotechnology), which was detected with an HRP-coupled anti-mouse secondary antibody using chemiluminescence on a Bio-Rad Chemidoc MP imaging instrument.
To mimic this in vitro, we devised an in vitro translation setup producing either wild-type or mutant KRAS (G12V, G12C, G12D or G13D) in the presence of biotinylated RAS-targeting pept-ins. This allowed us to perform a streptavidin pull-down to capture the biotinylated pept-ins from the translation reaction and perform SDS-PAGE and Western blotting to probe the pulled-down fraction for the presence of KRAS. The biotinylated version of pept-in 04-004-N001, i.e. 04-004-N011, which harbours an APR window sequence derived from a wild-type APR, is predicted to target all RAS proteins independently from their mutation status.

G12C mutant KRAS = molecular target: T7, G12C mutant KRAS (Homo sapiens, UniProt P01116, G12C); experiment: In vitro translation assay with streptavidin pull-down, KRAS G12C; type: binding; conditions: 10 μM biotinylated pept-in, Western blot
T7 construct: made in house; host or cells: cell-free: PURExpress In Vitro Protein Synthesis Kit (New England Biolabs)
Experimental: as §2

AKVCFFVKGSKVCFFVK (ITK pept-in) [22-006-N001]
binding to ITK R29C over wild-type (ITK R29C): Selective binding to the mutant over wild-type

AKVLFFVKGSKVLFFVK (ITK pept-in) [22-018-N001]
binding to ITK R29L over wild-type (ITK R29L): Selective binding to the mutant over wild-type

Ac-KLVVVGAVKGSKLVVVGAVK-NH2 [04-014-N001]
activity in the spheroid setting [1]: did not display activity

04-015-N032: RAS-targeting FITC-labelled version of pept-in 04-015-N001 (KVVVGAVGKGSKVVVGAVGK; also: FITC-labelled version of 04-015-N001)
association with mCherry-labelled KRAS [2]: associates with mCherry-labelled KRAS

04-004-N011: biotinylated version of pept-in 04-004-N001 (KLSVFAIKGSKLSVFAIK; also: biotinylated version of 04-004-N001)
binding to KRAS G12D (KRAS G12D mutant): less efficient
binding to KRAS G13D (KRAS G13D mutant): less efficient
pull-down of KRAS G12V (G12V mutant KRAS): efficient pull-down
pull-down of KRAS G12C (G12C mutant KRAS): efficient pull-down
